For test [1], the target named is succinate-acetate permease (SatP) from Citrobacter koseri ATCC BAA-895 (Citrobacter koseri ATCC BAA-895). Kind of test: cross-linking; SatP in DOPC/DOPG liposomes, 10 uM protein in 20 mM HEPES pH 7.3; 0.5 mM BS3 (DMSO as control), room temperature, 1 h; 4-20% gradient SDS-PAGE.
The target is the same in test [2]. Put plainly: SDS-PAGE and Western blot of oligomer bands; SatP in SMA native nanodiscs from E. coli membranes, after the nickel affinity column; no cross-linker; anti-His Western blot. On the technique in general: Immunoblotting shows a protein as a band on a membrane.

Values joined by “and” are separate entries in the source; they are usually repeats but may differ in a detail not shown here. Equal values may be shown once.

We go through one substance from paper PMC8471396.

What is called stoichiometry N is the number of molecules, sites or subunits per partner or assembly. For the substance “succinate-acetate permease (SatP) from Citrobacter koseri ATCC BAA-895 (natural protein)”, the stoichiometry N in test [1] is 6 and 5 and 4; in test [2], 6.
